Results from the domain aggregation screens of Martell et al. (2025).

Test: soluble fraction after stress (log2 fold change); higher = more stays soluble; pooled small domains, quantitative proteomics
Details: stress: 75 degC
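Also: 20 min heating vs room temperature control held 20 min.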

Sequence: HMAVQPMDQVKAWLAEDNPADIKLLVPVLQKLDLLDYEQVRGEVADRAGVRKSLLDEAVKGN
- soluble fraction (log2): 0.0888

Sequence: HMNDLIKMPYLVGQLYDDVASNQEYADFQFKITEGNDPDKQPGEIMKQDPAADIMVKKNAEVELLVNG
- soluble fraction (log2): 0.374

Sequence: HMQQEAVNLVQSRGQQAIEPVHIMQGVMKVGENVTNFIFQKLGMNGQQVALVVDKQIDSLPKVSGGEPYL
- soluble fraction (log2): 0.124

Sequence: HMTLTPEQQAARRSEIVDIALRLIAENGFQKTSMREIADLAKMGKSSLYDFFKTKDEIAVYAMEKK
- soluble fraction (log2): -0.714

Sequence: HMSDDAVVRMRVPEDALGLSLRETDFRQRFGVYVLAIETRDGKLLAPPDPQRPLGKDDVLVVIQKR
- soluble fraction (log2): -0.847

Sequence: HMVITDPFFLEPENLVKDAVALMEKYRISGVPITKKGKLVGILTNRDLRFESNYEQPIANVMS
- soluble fraction (log2): 0.137

Sequence: HMEIEIPEELQNKFAEIPELKTAFESLTPGRQRAYVLYFSQPKQSKTREARIEKYIPHILDGKGMN
- soluble fraction (log2): 0.461

Sequence: HMQALTLVGQDAKDAKAALDAVDIQPAKTETDRYIYVLTEQQAQELGRTVDALYGVEGSLTLILEV
- soluble fraction (log2): 0.253

Sequence: HMQRDDMQIDRLIQIVFLLLSRNNLTAKQLAEELGVSTRTIYRDINILSVAGIPITSQKGYGGGLSLLQG
- soluble fraction (log2): -0.608

Sequence: HMAPRDKADKYVAAGIAEELVPILQKVGYYLVTDLKDVKAQKIQQQIGEIIKKYKLDIEKPSVQDIEGWN
- soluble fraction (log2): -0.192

Sequence: HMPSPFYIMDEVEAALDDTNLGRLITLFEELRDSSQLIVITHQKKTMEIADALYGVTMRGDGITTVVSQRL
- soluble fraction (log2): 0.151

Sequence: HMEQNHYEVLGVSRDAIPEEIRKAYFEYARKLHPDANPDPGAAEQFMRIQTAYDVLSNPDRRHEYDGLLPP
- soluble fraction (log2): 0.00418

Sequence: HMDFNDPTMEKSLVELPAMSNSTLRDLSENNIKKLEELAEMSVGELMDIASKISESDASALIMEARKPWF
- soluble fraction (log2): -0.312

Sequence: HMATPAFEMYKVRRGDTPAGLAKEWGFPDMASFYRINPDARSDWKRGLQLVKPMNEMAVLQATA
- soluble fraction (log2): -0.302

Sequence: HMGGVEWLTHPIGPRDSLQVLARAGLEARPTSDGDYEIYGQERWPQRDQARLMGWLRRFGQWVWQALYDK
- soluble fraction (log2): -0.569

Sequence: HMAPAYELTEEETKIIEILKANENIDLNELKSQAALSGKKWDKSMKNLAKYNLTKVTVDGDAKTVAYLA
- soluble fraction (log2): 0.164

Sequence: HMLTPQEIGSRLKLVRQGLQLKQQEVAEIIGTSQLKISKIEQGATVTTPDFLKLLAFYSQSVSLDILF
- soluble fraction (log2): -0.546

Sequence: HMNEIALETAIEDVESFIQMQNRNLAFSIDEDTDRAVVTVRDSDSGDVIRQIPSEEVLALAERIQDLQQD
- soluble fraction (log2): 0.0361

Sequence: HMERPSLDQVLAHAKALGIAPARFVAYADGRWGTGWRLSPHGRARAWEELDRHRNDPLGYRDKLDVALQSG
- soluble fraction (log2): -0.179

Sequence: HMGLIAPMPGQIRSVAVSVGDVVKKGQTLLTMEAMKMEIRIQALKDGRVTALHAAQGQTVEGEQILIEVE
- soluble fraction (log2): -2.32

Sequence: HMDPKWSHVRRLLDDENPIVRKALTEELIRSPEEGLAFLEQVIREPDHLLAKHAHNLLSELGWV
- soluble fraction (log2): 0.192

Sequence: HMHEIVDTVLQVKQSVEADPLIAPALKNKEIVFQLNAKGVFQFKNAVIQVASALGISKNTVYMHLRNNK
- soluble fraction (log2): -3.04

Sequence: HMSKQEFVDRLRVSLSGKISPASVEDNARYYEDYINTHIRLGEPEEDVLEGLGDPRLIARSIVAAESV
- soluble fraction (log2): -0.0989

Sequence: HMNAKKSTLQLDLLKQLLEGNKISLKDFSLSNEISIRTAQRYIEDLLEIFEKNIVKEGDFYSFIS
- soluble fraction (log2): -3.4

Sequence: HMGQVFEGTFNRKANGKNSVTPAEGGEPVFIAERNSLHAMNGDLVKVSLLAKKKHQPREAQVIEILKRSD
- soluble fraction (log2): 0.128

Sequence: HMNIQKYFAGREQFIELLEAVGIRTLEQFASADPSTVLPELHQAKRMLKLQTEIPSAPVFREWVNQALS
- soluble fraction (log2): -0.636

Sequence: HMGDYDHYVVKVEDTLLNWLVTNVTTMSRNKLKDILAGQGIKVNGKITTKYDYPLTPGMKIAISKTKR
- soluble fraction (log2): -1.41

Sequence: HMEWEVHSVTVTPELSGERLDVAATALLSQFSRALVQRWIDANELTLNERPVKAKSKVRVGDLIAVKAK
- soluble fraction (log2): -1.06

Sequence: HMPIDNTLLSRITSLGVSTTEAEKLISKHGEEALKANLEVVEERLSKPNLPLLDSPAAYLKTALKNG
- soluble fraction (log2): 0.415

Sequence: HMGLTLREKMGHVLEMLKGREFLPFVSLFTVEEGRIGVVVTFMSILELVKEGILDLVQTESFGPIHVKAR
- soluble fraction (log2): -0.541

Sequence: HMINIDESIDESLSEDDAVLDLLERASASFTKAQEALLEGDLGRYQTLIEQADRLVAKALELLDEKN
- soluble fraction (log2): -0.808

Sequence: HMQKNKSVLFKDIVIAFNQNPKKLFNYKQLAADLDIHSEAERMLISQLLNDLKDQNFLEEVERGKYKLKL
- soluble fraction (log2): -0.766

Sequence: HMELARLRPELDGNDIMRILGVPPGPVVGRAYTYLLELRINQGELGRERVTQLLLDWAAAEGISA
- soluble fraction (log2): -2.76

Sequence: HMTAFEPYLVKVMASVLNIRKGPGTSYAITGQIKDKGTYTIVAESGSWGKLKSGAGWISLSYTSKAGKA
- soluble fraction (log2): -1.82

Sequence: HMKEIATKSELTYFIQRLLDLLEETNFFNPEERKKAMINHIEAIFRRNNLTLQELNMLHGIITSITR
- soluble fraction (log2): -2.45

Sequence: HMTLSENEKIIVDTIMKYQPLHIDVLNQQVKVDFYTLLGLLTKLEMEGIVLKNPGNIYKINTL
- soluble fraction (log2): -0.378

Sequence: HMYQFFVDPGQIQGKRVTITGSDVNHIKNVLRMRIGEEIAVSNGKDGLEYRFGIDEILEDEVIGTLRFVKE
- soluble fraction (log2): -1.61

Sequence: HMELEDTYTKNLDASLARLDEYQASKGLTDEQVDEVINSLIADAENIIMGVFTPELIDSKLKAMNYDQDV
- soluble fraction (log2): 0.119

Sequence: HMTDYREILRLLSLGLSRTQIADSLNVSRTTVIHTLQRAVAQELDWQTAEGMSDRELVAKLFPV
- soluble fraction (log2): -3.95

Sequence: HMSKLQKTKYAGVYFTEDTQTRVKTYVARIVLAGIIDTEVVVGHSNDQHRTNAAIAYQRRLELIQEAKN
- soluble fraction (log2): -4

Sequence: HMKNAYDLKMLVKDNDGNIERNMKYYFFLANGSKVEGITDDNGYTKTITTIQPEKADLHLINDELI
- soluble fraction (log2): -1.61

Sequence: HMHSILDDIEGIGPARRKALMRHYMNLDAIKSATVEELAAVPSMNEKSAKAVHNFFHQQKKD
- soluble fraction (log2): 0.0285

Sequence: HMKEKQLMTLDDDLYAFLLKHPGIIQKDIYNHFPYDIKGVIADTLYAWDKTGKIKRTKSGNSYIIYT
- soluble fraction (log2): -0.228

Sequence: HMSKQLGFKIKTARRKLNISQGDLSKKLEISPSYLNLIESGKRKVSTDLLMKASEILNLDLKKL
- soluble fraction (log2): -0.966

Sequence: HMLPYKGTVAVSLAVLHKAVGVGTADMLKAVGTLRQGTEVTVTGRNGPFAQLKNGLWMKESFLE
- soluble fraction (log2): -1.07

Sequence: HMGRTVKGVNFVGLRDAGDPVDLAEIYSKEGADELVFLDITATHEKRKTLLDLVTRVAERINIPFTVGGGI
- soluble fraction (log2): 0.056

Sequence: HMTNYGTVRPGARGQAVTALQQALIRHGYKLTADGIYGRATRQAVRAFQQKHKLKVDGIVGSKTWALLLAD
- soluble fraction (log2): -2.13

Sequence: HMANSANARKSLVSKLIAGGKIASQSDLVKALKKQGIVVTQGTASRDLEDIGAIRVRNSEGEIVYALT
- soluble fraction (log2): 0.0457

Sequence: HMISESIPAKDALLRLLNTAYQTRTNAAGEFYFNDVPPGKYILQASVNDVEIIRENISINEN
- soluble fraction (log2): -0.377

Sequence: HMQSHIVPDVKSQHIAQAKALLESKQMKAVVIDSNFVKGLPAGIVLDQTPIGGARVKENRTIYLTINTL
- soluble fraction (log2): -1.56

Sequence: HMDVLTARENEVLQLLAKGMSNKEIASVLVITEKTVKAHVSSILSKLNLSDRTQAALYAVKNGI
- soluble fraction (log2): -0.763

Sequence: HMGIFDIIQEINRQGVTVLLIEQNANMALKIADVGYVLETGRISLTGSGRELLANEAVKKAYL
- soluble fraction (log2): -1.29

Sequence: HMARAESYGDIARLEQLLDEHANIAALDPGKLPAVRQQIWTLMRAARMDHDLGLAERPEDDSFDDMLLHV
- soluble fraction (log2): 0.208

Sequence: HMEFYYSDLVGMIVYDTGGNELGKVQAVLNHGAGDLLEIHGVNLKTSILIPFTKEAVPTVDIAARRIVTDP
- soluble fraction (log2): 0.246

Sequence: HMAQISDESALYDLVKSVLDANPQSIADYKAGRDRALGFLMGQAMKLSKGKANPPVINKILKEMLDK
- soluble fraction (log2): 0.161

Sequence: HMVSKEELANSIYENKTADELGNIVLRKGKYSGEMLRTIYVKDIGYLEWHSKQSYEYSNAVKWYLKKLE
- soluble fraction (log2): -1.37

Sequence: HMSVSTGTITGSVVNLREEPNTSSKVLDKLPKDTVVYVLSASGEWYNVSYGDKTGWVYGEYLA
- soluble fraction (log2): -0.737

Sequence: HMKEQIKVPDLSNKTPEEAKKELNTLGLGARKGGEESSDTVEEGLITRQEPAAGEQVDKNTQILFYVSTGK
- soluble fraction (log2): 0.901

Sequence: HMNQTPQISYSQFIADVRSGQIKDVNIDSDNRTIVGHKFSGEEFTTFSPGDNKLVDELLNYNVEIKTSP
- soluble fraction (log2): 0.611

Sequence: HMDNVLGKSGKVIFVNEEINSYGRAFIPGHGEWNIRTKSDQNIHINDGIKVIERDGITLVVEL
- soluble fraction (log2): -1.26

Sequence: HMTRQRQLIYNIIQRADDHPTAEMIYARAKAEMPSIAFGTVYRNLKLMVDAGEILHIPVAGEPDRYDK
- soluble fraction (log2): -1.96

Sequence: HMHDLSQQIVRYLIQQGGSSSLTDKSDPQEIYRTFKVSKKKYKQALGNLYKSKTIVITSGKIELVD
- soluble fraction (log2): -3.03

Sequence: HMESEAKLGVAFNGKTRFDMTFPADADNKTIEEAVLADERAQKYLEGFQVAKVIIVPKRMVNIVLK
- soluble fraction (log2): -0.189

Sequence: HMKHFFIIAGGKIEDAFAIEVLKGFAEKTVIAADSGMEFLRRNEIVPQVIIGDFDSVSKETLEWFQKK
- soluble fraction (log2): -0.751

Sequence: HMEIESAHAQVLGVREIAASGATQHWIAFRFSDGHQRELLATPSQADVIFRGQQGVVHFAGDRLTGWIPE
- soluble fraction (log2): 0.104

Sequence: HMPKDLEKRAAILAAAKHLFPVHGFEGTSMDAIAALANVSKLTVYSHFKDKESLFTEAIREK
- soluble fraction (log2): -0.0647

Sequence: HMNEWSIDINLADEKQWTAKTKLSPAIIQNIIRYKNYLGGFTNLNQIKKVYGFTEANYYLLKPHLQLGK
- soluble fraction (log2): -0.837

Sequence: HMNDENIIIEEIKYFIKSNQIKEQEKLPSERNLSELFTVSRFSLRKALRHLVDTGYLYVKDKSGYYYQGD
- soluble fraction (log2): -2.55

Sequence: HMRNEFEAHSDGTRIQLNDRSKATFSVYDVQGRLIHSFQDFSGSSFNIEPKNQLLIITRETAEGVSVKKLV
- soluble fraction (log2): 0.34

Sequence: HMAMPQPVARALHRLGQDISAARRMRRLSQEDLAQRIGTSLSTVRRMEDGYPGTALHTFLRALHML
- soluble fraction (log2): -0.552

Sequence: HMKTITVEDEQAGKRLDKALAELFPHYSRSALEKLIKEGQVLVNKSFVKSKYSLKLGDEISLQFEQL
- soluble fraction (log2): -0.325

Sequence: HMKSQVVAYSDFVKAVNQKQINEVQIQGDKIRAINKAGEEITVTWLQNDQKLMDDLLDNNVKTIFLE
- soluble fraction (log2): 0.0189

Sequence: HMVKETNYSFFLKQIDAGTVEQVQIEDTEIKFKVSTADGKEQVYSTVRVEDPDLVDRLYSKGNIDFTGN
- soluble fraction (log2): -0.0797

Sequence: HMKYWTISDLYSKLEEDQVELGAFSEDSNKVTVLDRQGYEHVIKILSSDVPALTELFRKKKVRFAVAG
- soluble fraction (log2): -1.3

Sequence: HMGGQKTREAIFDLIMTNSKITSAQIAEILGIHRSGVARHLKKLQEEGLIKREGPDNGGQWIVIK
- soluble fraction (log2): -0.473

Sequence: HMNGEDVTDAIRLPQISQYASVVSAYPGVRAFLLEMQRDFARKGSVIMDGRDIGTVVLPEAEVKIFLT
- soluble fraction (log2): -0.367

Sequence: HMGASLVIVPGAGFLRVSASSQTRLDVYSITGMRVRSVDFEPGTTEIELPAGFYIAGGRKFFV
- soluble fraction (log2): -2.42
